Measured values reported in patent US20110135657A1 (published 2011).

The binders below were run against T1, human FGF21 receptor (FGF21R): full length human FGFR1c and full length human β-Klotho co-expressed at the … (human, UniProt P11362 22-822; Q86Z14 53-1044) (assay: cell-based or functional assay).

EC50 (nM), Erk-phosphorylation, human adipocyte assay | Binder
0.38 nM | 16H7 variant, heavy chain E16Q + V24F + I83T (antibody, human IgG2, lambda) heavy: QVTLKESGPVLVKPTQTLTLTCTFSGFSLNNARMGVSWIRQPPGKALEWLAHIFSNDEKSYSTSLKSRLTISKDTSKSQVVLTMTNMDPVDTATYYCARSVVTGGYYYDGMDVWGQGTTVTVSSASTKGPSVFPLAPCSRSTSESTAALGCLVKDYFPEPVTVSWNSGALTSGVHTFPAVLQSSGLYSLSSVVTVPSSNFGTQTYTCNVDHKPSNTKVDKTVERKCCVECPPCPAPPVAGPSVFLFPPKPKDTLMISRTPEVTCVVVDVSHEDPEVQFNWYVDGVEVHNAKTKPREEQFNSTFRVVSVLTVVHQDWLNGKEYKCKVSNKGLPAPIEKTISKTKGQPREPQVYTLPPSREEMTKNQVSLTCLVKGFYPSDIAVEWESNGQPENNYKTTPPMLDSDGSFFLYSKLTVDKSRWQQGNVFSCSVMHEALHNHYTQKSLSLSPGK light: not shown
0.36 nM | 16H7 variant, heavy chain E16Q + V24F + I83T + T119L (antibody, human IgG2, lambda) heavy: QVTLKESGPVLVKPTQTLTLTCTFSGFSLNNARMGVSWIRQPPGKALEWLAHIFSNDEKSYSTSLKSRLTISKDTSKSQVVLTMTNMDPVDTATYYCARSVVTGGYYYDGMDVWGQGTLVTVSSASTKGPSVFPLAPCSRSTSESTAALGCLVKDYFPEPVTVSWNSGALTSGVHTFPAVLQSSGLYSLSSVVTVPSSNFGTQTYTCNVDHKPSNTKVDKTVERKCCVECPPCPAPPVAGPSVFLFPPKPKDTLMISRTPEVTCVVVDVSHEDPEVQFNWYVDGVEVHNAKTKPREEQFNSTFRVVSVLTVVHQDWLNGKEYKCKVSNKGLPAPIEKTISKTKGQPREPQVYTLPPSREEMTKNQVSLTCLVKGFYPSDIAVEWESNGQPENNYKTTPPMLDSDGSFFLYSKLTVDKSRWQQGNVFSCSVMHEALHNHYTQKSLSLSPGK light: not shown
0.73 nM | 16H7 variant, heavy chain I83T (antibody, human IgG2, lambda, V domains shown) VH: not shown VL: SYVLTQPPSVSVAPGQTARITCGGNNIGSESVHWYQQKPGQAPVLVVYDDSDRPSGIPERFSGSNSGNTATLTISRVEAGDEADYYCQVWDGNSDHVVFGGGTKLTVLG
0.51 nM | 22H5 Heavy Chain, Insertion of Y107 (SEQ ID NO 405), as printed in Table 7 (antibody, human IgG2, lambda, V domains shown) VH: QVTLKESGPVLVKPTETLTLTCTVSGFSLNNARMGVSWIRQPPGKALEWLAHIFSNDEKSYSTSLKSRLTISKDTSKSQVVLIMTNMDPVDTATYYCARSVVTGGYYYYDGMDVWGQGTTVTVSS VL: SYVLTQPPSVSVAPGQTARITCGGNNIGSQSVHWYQQKPGQAPVLVVYDDSDRPSGIPERFSGSNSGNTATLTISRVEAGDEADYYCQVWDNTSDHVVFGGGTKLTVLG
0.39 nM | 16H7 variant, heavy chain I83K (antibody, human IgG2, lambda, V domains shown) VH: not shown VL: SYVLTQPPSVSVAPGQTARITCGGNNIGSESVHWYQQKPGQAPVLVVYDDSDRPSGIPERFSGSNSGNTATLTISRVEAGDEADYYCQVWDGNSDHVVFGGGTKLTVLG
0.24 nM | 16H7 variant, heavy chain E16Q + V24F + I83T + S100I + T119L (antibody, human IgG2, lambda, V domains shown) VH: QVTLKESGPVLVKPTQTLTLTCTFSGFSLNNARMGVSWIRQPPGKALEWLAHIFSNDEKSYSTSLKSRLTISKDTSKSQVVLTMTNMDPVDTATYYCARIVVTGGYYYDGMDVWGQGTLVTVSS VL: SYVLTQPPSVSVAPGQTARITCGGNNIGSESVHWYQQKPGQAPVLVVYDDSDRPSGIPERFSGSNSGNTATLTISRVEAGDEADYYCQVWDGNSDHVVFGGGTKLTVLG
0.17 nM | 16H7 variant, heavy chain S100I (antibody, human IgG2, lambda, V domains shown) VH: not shown VL: SYVLTQPPSVSVAPGQTARITCGGNNIGSESVHWYQQKPGQAPVLVVYDDSDRPSGIPERFSGSNSGNTATLTISRVEAGDEADYYCQVWDGNSDHVVFGGGTKLTVLG
1.4 nM | 16H7 variant, light chain D49A + D91A (antibody, human IgG2, lambda, V domains shown) VH: not shown VL: SYVLTQPPSVSVAPGQTARITCGGNNIGSESVHWYQQKPGQAPVLVVYADSDRPSGIPERFSGSNSGNTATLTISRVEAGDEADYYCQVWAGNSDHVVFGGGTKLTVLG
0.35 nM | 16H7 variant, heavy chain D88R + P89A + V90E (antibody, human IgG2, lambda, V domains shown) VH: QVTLKESGPVLVKPTETLTLTCTVSGFSLNNARMGVSWIRQPPGKALEWLAHIFSNDEKSYSTSLKSRLTISKDTSKSQVVLIMTNMRAEDTATYYCARSVVTGGYYYDGMDVWGQGTTVTVSS VL: SYVLTQPPSVSVAPGQTARITCGGNNIGSESVHWYQQKPGQAPVLVVYDDSDRPSGIPERFSGSNSGNTATLTISRVEAGDEADYYCQVWDGNSDHVVFGGGTKLTVLG
0.14 nM | 16H7 variant, heavy chain D88R + P89A + V90E + S100I (antibody, human IgG2, lambda, V domains shown) VH: QVTLKESGPVLVKPTETLTLTCTVSGFSLNNARMGVSWIRQPPGKALEWLAHIFSNDEKSYSTSLKSRLTISKDTSKSQVVLIMTNMRAEDTATYYCARIVVTGGYYYDGMDVWGQGTTVTVSS VL: SYVLTQPPSVSVAPGQTARITCGGNNIGSESVHWYQQKPGQAPVLVVYDDSDRPSGIPERFSGSNSGNTATLTISRVEAGDEADYYCQVWDGNSDHVVFGGGTKLTVLG
1.04 nM | 16H7 variant, heavy chain Deletion of Y107 (antibody, human IgG2, lambda, V domains shown) VH: QVTLKESGPVLVKPTETLTLTCTVSGFSLNNARMGVSWIRQPPGKALEWLAHIFSNDEKSYSTSLKSRLTISKDTSKSQVVLIMTNMDPVDTATYYCARSVVTGGYYDGMDVWGQGTTVTVSS VL: SYVLTQPPSVSVAPGQTARITCGGNNIGSESVHWYQQKPGQAPVLVVYDDSDRPSGIPERFSGSNSGNTATLTISRVEAGDEADYYCQVWDGNSDHVVFGGGTKLTVLG
0.75 nM | 16H7 variant, heavy chain V24F (antibody, human IgG2, lambda, V domains shown) VH: not shown VL: SYVLTQPPSVSVAPGQTARITCGGNNIGSESVHWYQQKPGQAPVLVVYDDSDRPSGIPERFSGSNSGNTATLTISRVEAGDEADYYCQVWDGNSDHVVFGGGTKLTVLG
0.53 nM | 16H7 (antibody, human IgG2, lambda, V domains shown) VH: not shown VL: SYVLTQPPSVSVAPGQTARITCGGNNIGSESVHWYQQKPGQAPVLVVYDDSDRPSGIPERFSGSNSGNTATLTISRVEAGDEADYYCQVWDGNSDHVVFGGGTKLTVLG
0.6 nM | 16H7 variant, light chain D49Y (antibody, human IgG2, lambda, V domains shown) VH: not shown VL: SYVLTQPPSVSVAPGQTARITCGGNNIGSESVHWYQQKPGQAPVLVVYYDSDRPSGIPERFSGSNSGNTATLTISRVEAGDEADYYCQVWDGNSDHVVFGGGTKLTVLG
0.31 nM | 16H7 variant, heavy chain D109S (antibody, human IgG2, lambda, V domains shown) VH: not shown VL: SYVLTQPPSVSVAPGQTARITCGGNNIGSESVHWYQQKPGQAPVLVVYDDSDRPSGIPERFSGSNSGNTATLTISRVEAGDEADYYCQVWDGNSDHVVFGGGTKLTVLG

Biological target: T1, human FGF21 receptor (FGF21R): full …
Assay: cell-based or functional assay
Remark: another data set of the same source

Activity (%) = % of FGF21 activity, luciferase reporter, AM-1/D FGFR1c+β-Klotho Luc clone; antibody combined with isotype IgG2k control | Binder
23.5 % of FGF21 activity | 16H7 (antibody, human IgG2, lambda, V domains shown) VH: not shown VL: SYVLTQPPSVSVAPGQTARITCGGNNIGSESVHWYQQKPGQAPVLVVYDDSDRPSGIPERFSGSNSGNTATLTISRVEAGDEADYYCQVWDGNSDHVVFGGGTKLTVLG

What follows are binders tested against T2, soluble human β-Klotho (Biacore, Example 8) (human, UniProt Q86Z14 53-996, limits assumed) (assay: Biacore competition binning; test antibody injected over soluble receptor captured on immobilized 24H11, 17D8 or 1A2.1).
T2 construct: also called soluble β-Klotho
From the text: Soluble human FGFR1c/β-Klotho ECD-Fc complex or β-Klotho was then captured on the immobilized antibody surfaces.

binding result | Binder
binds | 18G1 (antibody, human IgG2, kappa, V domains shown, fully human monoclonal antibody; full chains H5/L4) VH: EVQLLESGGGLVQPGGSLRLSCAASRFTFSTYAMSWVRQAPGKGLEWVSGISGSGVSTHYADSVKGRFTISRDNSKNTLYLQMNSLRAEDTAVYYCAKSLIVVIVYALDHWGQGTLVTVSS VL: EIVLTQSPGTLSLSPGERATLSCRASQNFDSSYLAWYQQKPGQAPRLLIYGTSSRATGIPDRFSGIGSGTDFTLTINRLEPEDFAMYYCQQYGGSPLTFGGGTEVEIKR
binds | 46D11 (antibody, human IgG2, kappa, V domains shown, fully human monoclonal antibody; full chains H13/L13) VH: QVTLKEAGPVLVKPTETLTLTCTVSGFSLSNARMGVNWIRQPPGKALEWLAHIFSNDEKSYSTSLKSRLTISKDTSKSQVVLTMTNMDPVDTATYYCARVRIAGDYYYYYGMDVWGQGTTVTVSS VL: DIQMTQSPSSVSASVGDRVTITCRASQGISIWLAWYQQKPGKAPKLLIYAASSLQSGVPSRFSGSGSGTDFTLTISSLQPEDFATYYCQQANDFPITFGQGTRLEIKR
binds | 40D2 (antibody, human IgG2, kappa, V domains shown, fully human monoclonal antibody) VH: QVQLQESGPGLVKPSQTLSLTCTVSGGSISSGGYNWSWIRQHPGKGLEWIGNIYYSGSTYYNPSLKSRVTISVDTSKNQFSLKLRSVTAADTAVYYCARENIVVIPAAIFAGWFDPWGQGTLVTVSS VL: DFVMTQTPLSLSVTPGQPASISCKSSQSLLQSDGKTYLYWYLQKPGQPPHLLIYEVSNRFSGVPDRFSGSGSGTDFTLKISRVEAEDVGVYYCMQSIQLPRTFGQGTKVEIKR
binds | 17C3 (antibody, human IgG2, lambda, V domains shown, fully human monoclonal antibody from XenoMouse hybridoma) VH: QVTLKESGPVLVKPTETLTLTCTVSGFSLSNARMGVSWIRQPPGKALEWLAHIFSNDEKSYSTSLKSRLTISKDTSKSQVVLTMTNMDPVDTATYYCARILLLGAYYYYGMDVWGQGTTVTVSS VL: SYVLTQPPSVSVAPGQTARITCGGNNIGSQSVHWYQQKPGQAPVLVVYDDSDRPSGIPERFSGSNSGNTATLTISRVEAGDEADYYCQVWDSSSDHVVFGGGTKLTVLG
binds | 37D3 (antibody, human IgG2, kappa, V domains shown, fully human monoclonal antibody) VH: EVHLVESGGGLAKPGGSLRLSCAASGFTFRNAWMSWVRQAPGKGLEWVGRIKSKTDGGTTDYAAPVKGRFTISRDDSKNTLYLQMNSLKTEDTAEYYCITDRVLSYYAMAVWGQGTTVTVSS VL: DIVMTQSPLSLPVTPGEPASISCRSSQSLLHSNGYNFLDWYLQKPGQSPQLLIYLGSDRASGVPDRFSGSGSGTEFTLKISRVEAEDVGLYYCMQALQTPCSFGQGTKLEIKR
